# Values quoted from earlier work, collected in publication PMC11988861, “Step Enzymatic Hydrolysis and In Silico Screening-Assisted Preparation of Bioactive Peptides from Abalone” (Foods, 2025).
# Target: ACE (Homo sapiens, UniProt P12821)
# Set-up: method as in PMID 35323475
# Conditions: literature ACEi peptides from skipjack tuna muscle
# ACE, sequence (P12821 30-1306, species assumed): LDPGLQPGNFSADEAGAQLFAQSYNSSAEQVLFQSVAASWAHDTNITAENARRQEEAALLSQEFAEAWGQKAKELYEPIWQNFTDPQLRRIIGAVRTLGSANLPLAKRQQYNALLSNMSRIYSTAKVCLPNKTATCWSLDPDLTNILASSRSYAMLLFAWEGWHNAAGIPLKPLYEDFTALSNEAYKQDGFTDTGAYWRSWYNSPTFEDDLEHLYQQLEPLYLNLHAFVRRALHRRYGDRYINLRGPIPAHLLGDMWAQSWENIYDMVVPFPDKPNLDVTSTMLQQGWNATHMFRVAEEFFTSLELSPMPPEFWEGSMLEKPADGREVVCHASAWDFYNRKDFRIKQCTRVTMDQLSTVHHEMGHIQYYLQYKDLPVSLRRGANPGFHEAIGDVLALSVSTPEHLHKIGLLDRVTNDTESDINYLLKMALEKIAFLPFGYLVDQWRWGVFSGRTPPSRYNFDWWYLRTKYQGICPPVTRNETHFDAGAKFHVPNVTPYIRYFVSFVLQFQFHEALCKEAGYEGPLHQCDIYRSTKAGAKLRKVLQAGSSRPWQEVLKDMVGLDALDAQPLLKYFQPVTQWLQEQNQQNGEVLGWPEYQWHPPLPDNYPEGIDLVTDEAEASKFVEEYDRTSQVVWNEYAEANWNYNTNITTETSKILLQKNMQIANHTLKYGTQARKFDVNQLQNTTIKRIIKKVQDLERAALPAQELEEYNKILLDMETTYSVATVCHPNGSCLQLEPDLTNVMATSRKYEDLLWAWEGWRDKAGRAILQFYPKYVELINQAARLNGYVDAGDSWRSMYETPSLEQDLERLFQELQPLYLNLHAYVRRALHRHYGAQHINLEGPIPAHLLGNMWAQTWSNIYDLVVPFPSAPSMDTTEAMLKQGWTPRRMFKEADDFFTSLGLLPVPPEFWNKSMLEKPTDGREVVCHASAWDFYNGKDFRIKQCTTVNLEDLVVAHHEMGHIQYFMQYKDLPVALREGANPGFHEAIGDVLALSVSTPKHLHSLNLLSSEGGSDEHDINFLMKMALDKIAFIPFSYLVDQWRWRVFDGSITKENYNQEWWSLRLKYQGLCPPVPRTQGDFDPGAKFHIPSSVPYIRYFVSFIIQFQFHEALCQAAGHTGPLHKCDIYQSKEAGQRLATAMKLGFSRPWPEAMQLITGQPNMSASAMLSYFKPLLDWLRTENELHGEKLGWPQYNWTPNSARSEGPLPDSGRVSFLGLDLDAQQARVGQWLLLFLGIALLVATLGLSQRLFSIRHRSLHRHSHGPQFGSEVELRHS
substance,measurement,value
VDRYF,ACEi IC50,280 µg/mL
